Six molecules from patent publication US20240141045A1 (PRECIGEN, published 2024) can be followed below.

As a reminder, the Kd is the constant that tells how readily two partners part at equilibrium.

The target in test [1] is T1, TGF-β1 (UniProt P01137 279-390). Nature of the test: cell-based or functional assay.
Test [2] deals with T2, PD-1 Fc fusion protein (UniProt Q15116 25-167, limits assumed).
T2 construct: Antigen immobilised on the CM5 chip in all PD-1 SPR assays; also called PD-1 fused to human Fc region; PD-1-Fc antigen; not shown: human Fc region
T2 sequence (Q15116 25-167 limits assumed): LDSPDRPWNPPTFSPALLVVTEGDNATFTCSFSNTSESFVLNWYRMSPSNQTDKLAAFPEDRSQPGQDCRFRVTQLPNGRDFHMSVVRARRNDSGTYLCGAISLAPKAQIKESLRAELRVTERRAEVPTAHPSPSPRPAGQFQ
As to the kind of experiment: SPR (Biacore), PD1-Fc immobilised on CM5, 1:1 Langmuir model with mass transfer. The protocol: PD1-Fc antigen and reference antigen was immobilized on Biacore CM5 surface. […] Kinetics data was evaluated for 1:1 model: Langmuir with mass transfer.
For orientation: In SPR one partner is held on a chip, and binding of the other changes the refractive index at the surface.

Test [3] addresses T1, TGF-β1. As to the kind of experiment: cell-based or functional assay. This is another data set of the same source.
The target of test [4] is T3, TGF-β3 (UniProt P10600 301-412).
T3 sequence (looked up): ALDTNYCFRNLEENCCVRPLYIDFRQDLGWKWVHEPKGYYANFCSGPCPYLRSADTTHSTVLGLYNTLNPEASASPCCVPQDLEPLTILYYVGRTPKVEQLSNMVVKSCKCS
As to the kind of experiment: cell-based or functional assay.

Test [5] concerns the target T1, TGF-β1. Nature of the test: SPR (Biacore 3000), fusion protein immobilised on CM5 chip, TGF-β1 injected. The protocol:
(§1) Surface plasma resonance (SPR) analysis was performed using Biacore3000, CM5 chip, an amine-coupling kit, 10×HBS-P running buffer and Glycine for regeneration (GE Healthcare). […] Dissociation was allowed to proceed followed by a pulse of 10 mM Glycine (pH 1.5) for regeneration of the chip surface.

For test [6], the target named is T4, TGF-β2 (UniProt P61812 303-414).
T4 sequence (looked up): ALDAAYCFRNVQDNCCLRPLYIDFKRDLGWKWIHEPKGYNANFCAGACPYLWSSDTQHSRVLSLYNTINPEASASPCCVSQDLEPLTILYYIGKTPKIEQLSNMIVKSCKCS
As to the kind of experiment: SPR (Biacore 3000), fusion protein immobilised on CM5 chip, TGF-β2 injected. On the procedure:
as §1

For test [7], the target named is T3, TGF-β3. As to the kind of experiment: SPR (Biacore 3000), fusion protein immobilised on CM5 chip, TGF-β3 injected. The protocol: as §1
The target in test [8] is T5, PD-1 (programmed cell death protein 1), on cells (UniProt Q15116 25-288, limits assumed). As to the kind of experiment: cell-based or functional assay.
T5 sequence (Q15116 25-288 limits assumed): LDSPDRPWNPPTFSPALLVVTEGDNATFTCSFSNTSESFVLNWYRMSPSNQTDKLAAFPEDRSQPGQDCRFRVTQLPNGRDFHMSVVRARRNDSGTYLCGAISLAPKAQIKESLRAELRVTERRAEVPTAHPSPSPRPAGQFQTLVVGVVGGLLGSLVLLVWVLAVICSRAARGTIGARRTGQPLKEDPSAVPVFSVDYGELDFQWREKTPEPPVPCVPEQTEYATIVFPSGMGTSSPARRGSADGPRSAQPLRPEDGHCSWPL
The target of test [9] is T2, PD-1 Fc fusion protein. As to the kind of experiment: SPR (Biacore 3000), PD-1 Fc immobilised on CM5 chip, fusion protein injected. The protocol: as §1
The target of test [10] is T5, PD-1 (programmed cell death protein 1), …. As to the kind of experiment: cell-based or functional assay. The source holds these as a separate data set.
The target in test [11] is T2, PD-1 Fc fusion protein. Nature of the test: SPR (Biacore 3000), recombinant PD-1 Fc immobilised on CM5 chip, fusion protein injected. On the procedure: Surface plasma resonance (SPR) analysis was performed using Biacore3000, CM5 chip, an amine-coupling kit, 10×HBS-P running buffer and Glycine for. […] Dissociation was allowed to proceed followed by regeneration of the chip surface.

T1 sequence (P01137 279-390 limits assumed): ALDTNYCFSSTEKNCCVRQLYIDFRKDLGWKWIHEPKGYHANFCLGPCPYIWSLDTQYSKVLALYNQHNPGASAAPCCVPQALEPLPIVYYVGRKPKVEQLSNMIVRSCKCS

B1: Anti-PD1 (nVL1-nVH8).IgG4-TGFbRII (antibody)
heavy: EVQLVQSGGGVVQPGRSLRLSCAASGFTFSSYGMHWVRQAPGKGLEWVAVIWYDGSNKYYADSVKGRFTISRDNSKNTLYLQMNSLRAEDTAVYYCATNNDYWGQGTLVTVSSASTKGPSVFPLAPCSRSTSESTAALGCLVKDYFPEPVTVSWNSGALTSGVHTFPAVLQSSGLYSLSSVVTVPSSSLGTKTYTCNVDHKPSNTKVDKRVESKYGPPCPSCPAPEFLGGPSVFLFPPKPKDTLMISRTPEVTCVVVDVSQEDPEVQFNWYVDGVEVHNAKTKPREEQFNSTYRVVSVLTVLHQDWLNGKEYKCKVSNKGLPSSIEKTISKAKGQPREPQVYTLPPSQEEMTKNQVSLTCLVKGFYPSDIAVEWESNGQPENNYKTTPPVLDSDGSFFLYSRLTVDKSRWQEGNVFSCSVMHEALHNHYTQKSLSLSPGKGGGGSGGGGSIPPHVQKSVNNDMIVTDNNGAVKFPQLCKFCDVRFSTCDNQKSCMSNCSITSICEKPQEVCVAVWRKNDENITLETVCHDPKLPYHDFILEDAASPKCIMKEKKKPGETFFMCSCSSDECNDNIIFSEEYNTSNPD
light: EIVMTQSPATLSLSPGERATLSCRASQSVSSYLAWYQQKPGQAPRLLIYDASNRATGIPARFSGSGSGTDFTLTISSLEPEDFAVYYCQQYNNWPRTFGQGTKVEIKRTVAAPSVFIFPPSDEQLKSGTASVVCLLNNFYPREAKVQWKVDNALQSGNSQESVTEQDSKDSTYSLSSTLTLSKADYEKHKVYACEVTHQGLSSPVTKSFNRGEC
Take B1: the “IC50, inhibition of TGF-β1 induced reporter gene activity (HEK-Blue TGF-β cells, SEAP)” value in [1] was 0.0545 nM. Further, the dissociation constant Kd in [2] stood at 0.321 nM.

B2: Anti-PD1(VH6-VL5) IgG4-TGFβRII (antibody)
heavy: QVQLVESGGGVVQPGRSLRLDCKASGITFSNSGMHWVRQAPGKGLEWVAVIWYDGSKRYYADSVKGRFTISRDNSKNTLFLQMNSLRAEDTAVYYCATNDDYWGQGTLVTVSSASTKGPSVFPLAPCSRSTSESTAALGCLVKDYFPEPVTVSWNSGALTSGVHTFPAVLQSSGLYSLSSVVTVPSSSLGTKTYTCNVDHKPSNTKVDKRVESKYGPPCPSCPAPEFLGGPSVFLFPPKPKDTLMISRTPEVTCVVVDVSQEDPEVQFNWYVDGVEVHNAKTKPREEQFNSTYRVVSVLTVLHQDWLNGKEYKCKVSNKGLPSSIEKTISKAKGQPREPQVYTLPPSQEEMTKNQVSLTCLVKGFYPSDIAVEWESNGQPENNYKTTPPVLDSDGSFFLYSRLTVDKSRWQEGNVFSCSVMHEALHNHYTQKSLSLSPGKGGGGSGGGGSIPPHVQKSVNNDMIVTDNNGAVKFPQLCKFCDVRFSTCDNQKSCMSNCSITSICEKPQEVCVAVWRKNDENITLETVCHDPKLPYHDFILEDAASPKCIMKEKKKPGETFFMCSCSSDECNDNIIFSEEYNTSNPD
light: not shown
notes: IgG4 antibody with TGFβRII ECD fused to the C-terminus of the heavy chain; also called anti-PD-1 IgG4 antibody (VH6-VL5)-TGFβRII fusion protein; VH6-IgG4(wt)-linker-ECD with VL5
As for B2, the “IC50; neutralisation of TGF-β1 signalling, HEK-Blue TGF-β reporter cells (SEAP, absorbance 620 nM)” value in test [3] was found to be 0.0149 nM. For the same molecule, in test [4], the “IC50; neutralisation of TGF-β3 signalling, HEK-Blue TGF-β reporter cells (SEAP, absorbance 620 nM)” value amounted to 0.0067 nM. In addition, the dissociation constant (Kd) in test [5] worked out at 0.00522 nM; in test [6], 0.859 nM; in test [7], 0.00219 nM.

B3: Anti-PD1(VH6-VL5) IgG1-TGFβRII (antibody)
VH: QVQLVESGGGVVQPGRSLRLDCKASGITFSNSGMHWVRQAPGKGLEWVAVIWYDGSKRYYADSVKGRFTISRDNSKNTLFLQMNSLRAEDTAVYYCATNDDYWGQGTLVTVSS
VL: EIVLTQSPATLSLSPGERATLSCRASQSVSSYLAWYQQKPGQAPRLLIYDASNRATGIPARFSGSGSGTDFTLTISSLEPEDFAVYYCQQSSNWPRTFGQGTKVEIK
chain: GGGGSGGGGSIPPHVQKSVNNDMIVTDNNGAVKFPQLCKFCDVRFSTCDNQKSCMSNCSITSICEKPQEVCVAVWRKNDENITLETVCHDPKLPYHDFILEDAASPKCIMKEKKKPGETFFMCSCSSDECNDNIIFSEEYNTSNPD
notes: not shown: light-chain constant region (not tied to the IgG1 format); copies: 2 + 2 + 2
In the case of B3, the “IC50; PD-1/PD-L1 blockade bioassay (PD-1 effector cells with PD-L1 aAPC/CHO-K1 cells, luciferase RLU)” value in test [8] came out at 9.5 nM. Besides, in test [3], the “IC50; neutralisation of TGF-β1 signalling, HEK-Blue TGF-β reporter cells (SEAP, absorbance 620 nM)” value amounted to 0.0127 nM. Moreover, the “IC50; neutralisation of TGF-β3 signalling, HEK-Blue TGF-β reporter cells (SEAP, absorbance 620 nM)” value in test [4] stood at 0.0053 nM. Moreover, binding in test [9] was put at a Kd of 0.00764 nM.

B4: Anti-PD1(VH7-VL6) scFv-TGFβRII (scFv)
chain 1: QVQLVQSGVEVKKPGASVKVSCKASGYTFTNYYMYWVRQAPGQGLEWMGGINPSNGGTNFNEKFKNRVTLTTDSSTTTAYMELKSLQFDDTAVYYCARRDYRFDMGFDYWGQGTTVTVSS
chain 2: EIVLTQSPATLSLSPGERATLSCRASKGVSTSGYSYLHWYQQKPGQAPRLLIYLASYLESGVPARFSGSGSGTDFTLTISSLEPEDFAVYYCQHSRDLPLTFGGGTKVEIK
chain 3: GGGGSGGGGSIPPHVQKSVNNDMIVTDNNGAVKFPQLCKFCDVRFSTCDNQKSCMSNCSITSICEKPQEVCVAVWRKNDENITLETVCHDPKLPYHDFILEDAASPKCIMKEKKKPGETFFMCSCSSDECNDNIIFSEEYNTSNPD
As to B4, in [9], the Kd amounted to 7.77 nM.

B5: Anti-PD1(VH6-VL5) scFv-TGFβRII (scFv)
chain 1: QVQLVESGGGVVQPGRSLRLDCKASGITFSNSGMHWVRQAPGKGLEWVAVIWYDGSKRYYADSVKGRFTISRDNSKNTLFLQMNSLRAEDTAVYYCATNDDYWGQGTLVTVSS
chain 2: EIVLTQSPATLSLSPGERATLSCRASQSVSSYLAWYQQKPGQAPRLLIYDASNRATGIPARFSGSGSGTDFTLTISSLEPEDFAVYYCQQSSNWPRTFGQGTKVEIK
chain 3: GGGGSGGGGSIPPHVQKSVNNDMIVTDNNGAVKFPQLCKFCDVRFSTCDNQKSCMSNCSITSICEKPQEVCVAVWRKNDENITLETVCHDPKLPYHDFILEDAASPKCIMKEKKKPGETFFMCSCSSDECNDNIIFSEEYNTSNPD
In test [9], B5 came in with a Kd of 19.7 nM.

B6: Anti-PD1 (VH6-VL5) IgG1-ADA2 (antibody)
heavy (part 1 of 2): QVQLVESGGGVVQPGRSLRLDCKASGITFSNSGMHWVRQAPGKGLEWVAVIWYDGSKRYYADSVKGRFTISRDNSKNTLFLQMNSLRAEDTAVYYCATNDDYWGQGTLVTVSS
heavy (part 2 of 2): GGGGSGGGGSSIDETRAHLLLKEKMMRLGGRLVLNTKEELANERLMTLKIAEMKEAMRTLIFPPSMHFFQAKHLIERSQVFNILRMMPKGAALHLHDIGIVTMDWLVRNVTYRPHCHICFTPRGIMQFRFAHPTPRPSEKCSKWILLEDYRKRVQNVTEFDDSLLRNFTLVTQHPEVIYTNQNVVWSKFETIFFTISGLIHYAPVFRDYVFRSMQEFYEDNVLYMEIRARLLPVYELSGEHHDEEWSVKTYQEVAQKFVETHPEFIGIKIIYSDHRSKDVAVIAESIRMAMGLRIKFPTVVAGFDLVGHEDTGHSLHDYKEALMIPAKDGVKLPYFFHAGETDWQGTSIDRNILDALMLNTTRIGHGFALSKHPAVRTYSWKKDIPIEVCPISNQVLKLVSDLRNHPVATLMATGHPMVISSDDPAMFGAKGLSYDFYEVFMGIGGMKADLRTLKQLAMNSIKYSTLLESEKNTFMEIWKKRWDKFIADVATK
light: EIVLTQSPATLSLSPGERATLSCRASQSVSSYLAWYQQKPGQAPRLLIYDASNRATGIPARFSGSGSGTDFTLTISSLEPEDFAVYYCQQSSNWPRTFGQGTKVEIK
notes: also called anti-PD1 (VH6/VL5) hIgG1-ADA2; not shown: IgG1 (hIgG1) heavy chain constant region; light chain constant region
Take B6: in test [10], the “EC50 (read off the curve); PD-1/PD-L1 blockade reporter bioassay (luciferase RLU)” value was around 0.6 µg/mL. Further, the Kd in test [11] was 0.000309 nM.
